The source of these data is patent publication US20250161356A1 (UNIVERSITY OF MELBOURNE, published 2025).

What is called Kd is the equilibrium constant for the complex coming apart. Lower therefore signals a tighter complex.

B3: BTN2A1 ectodomain homodimer (disulfide-linked, with C-terminal Cys247 and leucine zippers) (ligand, human, UniProt Q7KYR7 29-248, looked up)
chain: QFIVVGPTDPILATVGENTTLRCHLSPEKNAEDMEVRWFRSQFSPAVFVYKGGRERTEEQMEEYRGRTTFVSKDISRGSVALVIHNITAQENGTYRCYFQEGRSYDEAILHLVVAGLGSKPLISMRGHEDGGIRLECISRGWYPKPLTVWRDPYGGVAPALKEVSMPDADGLFMVTTAVIIRDKSVRNMSCSINNTLLGQKKESVIFIPESFMPSVSPCA
notes: extracellular domain; One copy carries the acidic, the other the basic zipper; also called immobilised BTN2A1 ectodomain homodimer; BTN2A1 homodimer; not shown: acidic or basic leucine zipper and C-terminal AviTag/His tags
B4: soluble BTN3A1 ectodomain (IgV-IgC), homodimer (ligand)
chain: not shown
notes: extracellular domain; Soluble analyte or immobilised ligand in SPR; streptavidin-PE tetramer in staining; also called BTN3A1 ectodomain homodimer; BTN3A1 tetramer; not shown: C-terminal biotin ligase (AviTag) and His tags

The target in test [1] is T1, 9C2 Vγ5Vδ1+ γδTCR on transfected HEK293T cells.
T1 construct: Control TCR, co-transfected with CD3; also called 9C2 TCR (Control)
Briefly: flow cytometry, tetramer-PE versus CD3-APC on HEK293T cells co-transfected with CD3 and 9C2 TCR; SAv ctl 26. (In general: In flow cytometry, cells or beads pass a laser one at a time.)

Test [2] has as its target B4. Kind of test: SPR, soluble BTN3A1 ectodomain over immobilised BTN2A1 homodimer, equilibrium analysis, ± SEM.
Test [3] addresses T2, BTN2A1 on transfected cells (human, UniProt Q7KYR7 29-527).
T2 construct: Expressed from pMIG in NIH-3T3 or HEK293T cells; also called BTN2A1+ cells; BTN2A1 WT
T2 sequence: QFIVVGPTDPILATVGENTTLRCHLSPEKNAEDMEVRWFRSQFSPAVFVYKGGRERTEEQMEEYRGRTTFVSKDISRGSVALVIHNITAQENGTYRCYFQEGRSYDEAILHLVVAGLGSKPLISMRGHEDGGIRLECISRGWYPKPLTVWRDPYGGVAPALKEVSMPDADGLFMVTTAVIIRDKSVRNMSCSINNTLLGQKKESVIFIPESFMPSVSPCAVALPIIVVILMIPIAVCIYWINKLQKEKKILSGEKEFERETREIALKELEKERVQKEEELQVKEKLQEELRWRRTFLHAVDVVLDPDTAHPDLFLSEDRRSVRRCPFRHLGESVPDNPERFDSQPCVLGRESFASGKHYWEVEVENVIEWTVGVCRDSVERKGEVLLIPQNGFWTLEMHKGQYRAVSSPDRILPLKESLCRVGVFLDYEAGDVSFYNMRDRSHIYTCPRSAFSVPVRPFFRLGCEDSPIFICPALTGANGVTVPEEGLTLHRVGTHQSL
Kind of test: FRET between anti-BTN2A1 (259) and anti-BTN3A (103.2) mAbs on NIH-3T3 cells co-expressing BTN2A1 WT and the BTN3A1 mutant (association in cis).

Test [4] concerns the target B3. Briefly: SPR, soluble BTN3A1 IgV domain over immobilised BTN2A1 homodimer, equilibrium analysis, ± SEM. (SPR reads the build-up and loss of mass on a sensor chip optically.)
Test [5] has as its target B4. Kind of test: SPR, soluble BTN3A1 IgV domain over immobilised BTN3A1 homodimer.
Test [6] deals with B3. Kind of test: SPR, soluble BTN2A1 ectodomain over immobilised BTN2A1 ectodomain homodimer.
Test [7] deals with B4. Kind of test: SPR, soluble BTN2A1 ectodomain over immobilised BTN3A1 homodimer, equilibrium analysis, ± SEM.
Test [8] concerns the target B4. Kind of test: SPR, soluble BTN2A1 ectodomain over immobilised BTN3A1 homodimer, equilibrium analysis.

B1: BTN2A1 ectodomain tetramer (streptavidin-PE) (ligand, human, UniProt Q7KYR7 29-248, looked up)
chain: QFIVVGPTDPILATVGENTTLRCHLSPEKNAEDMEVRWFRSQFSPAVFVYKGGRERTEEQMEEYRGRTTFVSKDISRGSVALVIHNITAQENGTYRCYFQEGRSYDEAILHLVVAGLGSKPLISMRGHEDGGIRLECISRGWYPKPLTVWRDPYGGVAPALKEVSMPDADGLFMVTTAVIIRDKSVRNMSCSINNTLLGQKKESVIFIPESFMPSVSPCA
notes: extracellular domain; biotinylated at a C-terminal AviTag; also called BTN2A1 tetramer
Regarding B1, the “median fluorescence of PE” value in test [1] came out at 25.

B2: BTN2A1-BTN3A1-zipper ectodomain complex (wild type) (other)
chain 1: QFIVVGPTDPILATVGENTTLRCHLSPEKNAEDMEVRWFRSQFSPAVFVYKGGRERTEEQMEEYRGRTTFVSKDISRGSVALVIHNITAQENGTYRCYFQEGRSYDEAILHLVVAGLGSKPLISMRGHEDGGIRLECISRGWYPKPLTVWRDPYGGVAPALKEVSMPDADGLFMVTTAVIIRDKSVRNMSCSINNTLLGQKKESVIFIPESFMPSVSPCA
chain 2: not shown
notes: extracellular domain; Immobilised in SPR; streptavidin-PE tetramer in staining; also called BTN2A1-BTN3A1 complex; BTN2A1-BTN3A1 heteromer; not shown: acid zipper (AZ)-His6; basic zipper (BZ)-biotin ligase tag
As for B2, in test [1], the “median fluorescence of PE” value was 52.
In turn, B3 returned a dissociation constant Kd in test [2] of 500 µM.
For the molecule B4, the “median fluorescence of PE” value in test [1] is 28.

B5: BTN3A1 Arg44-Ala on transfected NIH-3T3 cells (ligand)
chain: not shown
notes: whole, on cells; Position counts the mature protein
In the case of B5, the binding result in test [3] is “no binding”.

B6: BTN3A1 Leu96-Ala on transfected NIH-3T3 cells (ligand)
chain: not shown
notes: as for B5
On to B6, for which the binding result in test [3] is on record as “no binding”.

B7: BTN3A1 Tyr98-Phe on transfected NIH-3T3 cells (ligand)
chain: not shown
notes: as for B5
As for B7, the binding result in test [3] was “no binding”.

B8: BTN3A1 Tyr98-Ala on transfected NIH-3T3 cells (ligand)
chain: not shown
notes: as for B5
Regarding B8, the binding result in test [3] is recorded as “no binding”.

B9: BTN3A1 Glu106-Ala on transfected NIH-3T3 cells (ligand)
chain: not shown
notes: as for B5
In the case of B9, the binding result in test [3] is “no binding”.

B10: BTN3A1 Tyr105-Ala on transfected NIH-3T3 cells (ligand)
chain: not shown
notes: as for B5
Consider B10, for which, in test [3], the binding result is “no binding”.

B11: monomeric BTN3A1 IgV domain (ligand)
chain: not shown
notes: domain: IgV; not shown: C-terminal biotin ligase (AviTag) and His tags
The molecule B11 registered an equilibrium dissociation constant (Kd) in test [4] of 1.1 mM. Moreover, the binding result in test [5] is “no binding (tested: 1,590 µM)”.

B12: soluble BTN2A1 ectodomain lacking Cys247 (monomeric) (ligand, human, UniProt Q7KYR7 29-246, looked up)
chain: QFIVVGPTDPILATVGENTTLRCHLSPEKNAEDMEVRWFRSQFSPAVFVYKGGRERTEEQMEEYRGRTTFVSKDISRGSVALVIHNITAQENGTYRCYFQEGRSYDEAILHLVVAGLGSKPLISMRGHEDGGIRLECISRGWYPKPLTVWRDPYGGVAPALKEVSMPDADGLFMVTTAVIIRDKSVRNMSCSINNTLLGQKKESVIFIPESFMPSVSP
notes: extracellular domain; also called soluble monomeric BTN2A1 ectodomain; full-length BTN2A1 ectodomain; not shown: C-terminal biotin ligase (AviTag) and His tags
For the molecule B12, the binding result in test [6] is “no binding”. Further, the Kd in test [7] was 1.8 mM; in test [8] it was about 1.8 mM.
